In this test the target is chimeric avidin mutant A/A2-B I109K. Nature of the test: SDS-PAGE stability assay; 55 µM acetylated protein in pH 7 buffer, with or without biotin-5-fluorescein, 20 min at 20-100°C, sample buffer without SDS, 15% gel; control boiled with 2% SDS and 0.5% β-mercaptoethanol.

One may read the stoichiometry N as the number of molecules, sites or subunits per partner or assembly. As to chimeric avidin mutant A/A2-B I109K, the stoichiometry N turned out to be 4.

The values are drawn from paper PMC3954883.
